Experimental data: publication doi:10.1101/2020.12.28.424526 (bioRxiv, 2020)

Key:
[1] = biological target: 5'-3' exoribonuclease-2 (XRN-2) (C. elegans (endogenous in worm lysate)) (UniProt Q9U299); test: SDS-PAGE of the RNA-affinity purified complex
[2] = biological target: T1, 5'-3' exoribonuclease-2 (XRN-2) (C. elegans (endogenous in worm lysate), UniProt Q9U299 1-975); test: SDS-PAGE of the RNA-affinity purified complex
T1 sequence (looked up): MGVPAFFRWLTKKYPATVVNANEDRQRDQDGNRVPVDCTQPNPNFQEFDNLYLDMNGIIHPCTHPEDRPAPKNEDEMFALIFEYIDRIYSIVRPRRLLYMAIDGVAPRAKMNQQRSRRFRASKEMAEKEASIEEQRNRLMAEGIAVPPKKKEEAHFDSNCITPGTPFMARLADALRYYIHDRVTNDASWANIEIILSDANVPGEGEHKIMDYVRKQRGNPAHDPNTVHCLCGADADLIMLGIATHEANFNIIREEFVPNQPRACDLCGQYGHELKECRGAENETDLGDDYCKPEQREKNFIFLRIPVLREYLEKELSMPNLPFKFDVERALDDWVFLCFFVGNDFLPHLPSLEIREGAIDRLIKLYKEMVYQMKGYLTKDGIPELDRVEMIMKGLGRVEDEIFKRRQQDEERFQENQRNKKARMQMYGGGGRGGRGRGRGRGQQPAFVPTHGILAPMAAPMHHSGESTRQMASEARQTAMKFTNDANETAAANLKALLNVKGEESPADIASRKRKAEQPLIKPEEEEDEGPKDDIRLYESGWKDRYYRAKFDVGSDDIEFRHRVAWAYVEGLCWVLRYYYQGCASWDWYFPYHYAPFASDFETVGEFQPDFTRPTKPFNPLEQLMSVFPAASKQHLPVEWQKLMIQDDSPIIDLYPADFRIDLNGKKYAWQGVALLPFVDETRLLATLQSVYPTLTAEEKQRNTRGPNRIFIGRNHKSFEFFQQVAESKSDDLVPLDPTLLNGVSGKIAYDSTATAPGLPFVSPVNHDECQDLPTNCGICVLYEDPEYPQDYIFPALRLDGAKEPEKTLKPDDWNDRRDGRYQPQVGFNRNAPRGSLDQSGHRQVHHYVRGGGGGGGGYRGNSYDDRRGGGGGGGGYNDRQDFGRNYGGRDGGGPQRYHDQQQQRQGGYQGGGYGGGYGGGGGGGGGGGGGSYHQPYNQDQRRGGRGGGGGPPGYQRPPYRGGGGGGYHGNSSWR

recombinant XRN-2 = biological target: T2, recombinant XRN-2 (C. elegans, UniProt Q9U299 1-975)
T2 sequence (looked up): T1 sequence (looked up)

For “miRNasome-1.4 (B0024.11) (natural protein)”, which stoichiometry N [1] is on record?
The stoichiometry N was 1.

Which stoichiometry N [1] does the source give for NOL-58 (natural protein) here?
Its stoichiometry N is 1.

B1: partner of XRN two-1 (PAXT-1) (natural protein, C. elegans (endogenous in worm lysate), UniProt Q21738 1-335, looked up)
chain: MGKLEDVEAEKKLWESDDAWELRKAFMLAHYDDYPKIQLQCLSQLFINVTLLGCEYSQTLMQKIRTMGAGIAANKDRTKTGSYVKASAAKKRQAVKTSDLEGASDESKKVKMEKSPSPVARESFDERLGKLKASLAMTPHHLTGEQMMKTATNSCLMKWHVNKINQKIEITIDRYVAFRHTFSQYCVDPRDCAINTLIESILSCDAAVHEESYEIRFDGVPVDECYAKSVTRRLAKIKSAVSNGAHTVKGLTTYLDAVNMSMIQNTQKLEGWSQQLDLVTADLLLSSRVLSSTECTKPAMATIANQMSEDVCQLILNDKINVINSMKSHSSLAFQ
B1 was tested. Which “stoichiometry N” value [2] did it give?
The value was 1.

B2: recombinant PAXT-1 (natural protein, C. elegans, UniProt Q21738 1-335, looked up)
chain: B1 chain
How did the “stoichiometry N” value (recombinant XRN-2) turn out when B2 was run?
Its value is 1.

B3: recombinant miRNasome-1.4 (natural protein, C. elegans, UniProt Q17426 1-577, looked up)
chain: METEFGLTEYASEHTITPVPCLLKEMYSDFIVQEILADHTVLAIPSPDVVLESTGSKKEDIEIEECVAKPDCISEETLAALNDRFSTKGDPVLVKVDDLSKEDRKSIHHFIRERYAGVLITETKEDGILVSHGHTKSSRKRKLWDEKVPKECHFTICKENKETSFACQLIAKFLNVGPNNIRTHGIKDKRAVTSQRVSVTKVHERTILDLNSKLRGIRVFGCEYKDDPVQMGAHWGNRFSIVLRSLPDDSEQLLHQRLETFQNTGFINYFGTQRFGSRSSTTAEIGLAIVKRDWEKAVKMIMTNAMPDHLGYGSVGYAAKCFSQTGDARKAFSKLKGAQAFATVEGNILKCLSKGGTWQNCITEAIPIQSRSLYVHAYQSLIWNKVASRRVKEYGTRVHESDVGANGFSLGEHATHYDIHIPLPGENLPFEGSYGAKWISELLEEDGLTQSSFTALKDRFSLGESSRCLFVEAKELKWKFIRYGNARDLLQDGLQTRAIPEAEQKGPLLALQIQFSLISGSYATVALREVTGSDMGKKAMRDASFKTRGDDEKTEENVLEEKGSDDANELNLVSEDQ
How did the “stoichiometry N” value (recombinant XRN-2) turn out when B3 was run?
The value was 1.

B4: recombinant NOL-58 (natural protein, C. elegans, UniProt O45012 1-487, looked up)
chain: MLVLFEVAAGYAVFKLSNEKKLKNVDNIWEEFSTAEKAQENLQLVSFKKFKTTAGAVEATSEITEGKLSKTLKKLLKSSVDETEKLAVGDAKLGNLIKEKLSLNCVHDSSINELMRGVRAHIEDLLAEHKEEMNAMNLAVAHSLARYKVKFNPEKIDTMIVQAVSLLDDLDKELNNYVMRVREWYGWHFPELGKTIQDHQAYAKIIKAIGMRQNCINTDLSSILPEELEEKVKEDAEISMGTDISDIDLIHIKGLCDQVIELSAYRAQLFDYLKNRMTALAPNLTVLLGELVGARLISHAGSLVSLAKAPASTIQILGAEKALFRALKTKKDTPKYGLIYHAQLITQAPPKVKGKMARKLAAKCSLATRIDALSDESATNEIGIECRAALENVLRTESERGPSKNKSFGSHRHDKYEFKSETYEYDASADTPASRKHKRFDDNEESTNAIKKMKIEEVKEEDEAEPEKKKKKKEKKAKKADTDSDEE
B4 was tested. Which “stoichiometry N” value (recombinant XRN-2) did it give?
Its value is 1.
